Earlier results in PMC2865993.

Molecular target: actin filament (sides) (Oryctolagus cuniculus) (UniProt P68135)

For “formin (mDia1 FH2) FH2 (from UniProt O08808)”, the Kd is given as 3000 nM.
